Results from PMC3367090.

Target: IpaD^Δ192-267 (IpaD distal domain deletion mutant) (S. flexneri) (UniProt P18013)

## IpaD^Δ192-267 (IpaD distal domain deletion mutant) (from UniProt P18013 15-332) (natural protein)
  stoichiometry N: 5
